Laboratory results taken from patent publication US20250189530A1 (STCUBE, published 2025).
Changes are numbered by the printed parent chain. Read-outs that look alike come from different tables or passages of the source. Blank lines part the entries; values can stand above or below the molecule they belong to.

How the values were obtained:
BTN1A1 Peptide 4 [1] = target: T1, BTN1A1 Peptide 4 (human); test: ELISA clone screen, STCube, negative control
T1 construct: also called BTN1A1-pep4- WT; Pep4
T1 peptide: EVEVGDRTDWAIGVC

hBTN1A1 ICD [2] = target: T2, hBTN1A1 ICD (human, UniProt Q13410 270-526); test: ELISA clone screen, STCube, negative control
T2 sequence: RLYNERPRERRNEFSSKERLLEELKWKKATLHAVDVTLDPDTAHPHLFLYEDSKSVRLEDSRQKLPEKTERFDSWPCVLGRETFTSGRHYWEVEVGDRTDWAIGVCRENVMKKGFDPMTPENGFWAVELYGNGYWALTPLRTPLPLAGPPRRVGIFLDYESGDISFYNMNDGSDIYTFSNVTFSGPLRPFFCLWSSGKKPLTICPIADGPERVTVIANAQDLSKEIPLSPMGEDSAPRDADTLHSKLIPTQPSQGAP

denatured hBTN1A1 ICD [3] = target: T3, denatured hBTN1A1 ICD (human, UniProt Q13410 270-526); test: ELISA clone screen, STCube, negative control
T3 construct: Same protein as hBTN1A1 ICD, denatured before the ELISA; also called hBTN1A1 ICD denatured; Denatured ICD
T3 sequence: T2 sequence

BTN1A1 Peptide 4 [4] = target: T1, BTN1A1 Peptide 4; test: ELISA clone screen, GenScript, negative control
hBTN1A1 ICD [5] = target: T2, hBTN1A1 ICD; test: ELISA clone screen, GenScript, negative control
denatured hBTN1A1 ICD [6] = target: T3, denatured hBTN1A1 ICD; test: ELISA clone screen, GenScript, negative control
ECD1 Peptide = target: T4, ECD1 Peptide; test: ELISA clone screen
T4 construct: also called BTN1A1 ECD1
T4 peptide: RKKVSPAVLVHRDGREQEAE

hBTN1A1-His [7] = target: T5, hBTN1A1-His (human, UniProt Q13410); test: ELISA clone screen
T5 construct: also called human BTN1A1-His
T5 sequence (antigen, looked up): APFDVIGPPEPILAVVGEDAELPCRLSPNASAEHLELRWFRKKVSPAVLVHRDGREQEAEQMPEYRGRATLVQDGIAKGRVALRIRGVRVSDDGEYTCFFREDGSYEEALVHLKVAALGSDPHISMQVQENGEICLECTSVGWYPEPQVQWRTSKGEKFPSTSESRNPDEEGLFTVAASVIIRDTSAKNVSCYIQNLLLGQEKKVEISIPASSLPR

KLH Only = KLH Only (keyhole limpet); test: ELISA clone screen
Chain of KLH Only (keyhole limpet) (Q10583 17-3414): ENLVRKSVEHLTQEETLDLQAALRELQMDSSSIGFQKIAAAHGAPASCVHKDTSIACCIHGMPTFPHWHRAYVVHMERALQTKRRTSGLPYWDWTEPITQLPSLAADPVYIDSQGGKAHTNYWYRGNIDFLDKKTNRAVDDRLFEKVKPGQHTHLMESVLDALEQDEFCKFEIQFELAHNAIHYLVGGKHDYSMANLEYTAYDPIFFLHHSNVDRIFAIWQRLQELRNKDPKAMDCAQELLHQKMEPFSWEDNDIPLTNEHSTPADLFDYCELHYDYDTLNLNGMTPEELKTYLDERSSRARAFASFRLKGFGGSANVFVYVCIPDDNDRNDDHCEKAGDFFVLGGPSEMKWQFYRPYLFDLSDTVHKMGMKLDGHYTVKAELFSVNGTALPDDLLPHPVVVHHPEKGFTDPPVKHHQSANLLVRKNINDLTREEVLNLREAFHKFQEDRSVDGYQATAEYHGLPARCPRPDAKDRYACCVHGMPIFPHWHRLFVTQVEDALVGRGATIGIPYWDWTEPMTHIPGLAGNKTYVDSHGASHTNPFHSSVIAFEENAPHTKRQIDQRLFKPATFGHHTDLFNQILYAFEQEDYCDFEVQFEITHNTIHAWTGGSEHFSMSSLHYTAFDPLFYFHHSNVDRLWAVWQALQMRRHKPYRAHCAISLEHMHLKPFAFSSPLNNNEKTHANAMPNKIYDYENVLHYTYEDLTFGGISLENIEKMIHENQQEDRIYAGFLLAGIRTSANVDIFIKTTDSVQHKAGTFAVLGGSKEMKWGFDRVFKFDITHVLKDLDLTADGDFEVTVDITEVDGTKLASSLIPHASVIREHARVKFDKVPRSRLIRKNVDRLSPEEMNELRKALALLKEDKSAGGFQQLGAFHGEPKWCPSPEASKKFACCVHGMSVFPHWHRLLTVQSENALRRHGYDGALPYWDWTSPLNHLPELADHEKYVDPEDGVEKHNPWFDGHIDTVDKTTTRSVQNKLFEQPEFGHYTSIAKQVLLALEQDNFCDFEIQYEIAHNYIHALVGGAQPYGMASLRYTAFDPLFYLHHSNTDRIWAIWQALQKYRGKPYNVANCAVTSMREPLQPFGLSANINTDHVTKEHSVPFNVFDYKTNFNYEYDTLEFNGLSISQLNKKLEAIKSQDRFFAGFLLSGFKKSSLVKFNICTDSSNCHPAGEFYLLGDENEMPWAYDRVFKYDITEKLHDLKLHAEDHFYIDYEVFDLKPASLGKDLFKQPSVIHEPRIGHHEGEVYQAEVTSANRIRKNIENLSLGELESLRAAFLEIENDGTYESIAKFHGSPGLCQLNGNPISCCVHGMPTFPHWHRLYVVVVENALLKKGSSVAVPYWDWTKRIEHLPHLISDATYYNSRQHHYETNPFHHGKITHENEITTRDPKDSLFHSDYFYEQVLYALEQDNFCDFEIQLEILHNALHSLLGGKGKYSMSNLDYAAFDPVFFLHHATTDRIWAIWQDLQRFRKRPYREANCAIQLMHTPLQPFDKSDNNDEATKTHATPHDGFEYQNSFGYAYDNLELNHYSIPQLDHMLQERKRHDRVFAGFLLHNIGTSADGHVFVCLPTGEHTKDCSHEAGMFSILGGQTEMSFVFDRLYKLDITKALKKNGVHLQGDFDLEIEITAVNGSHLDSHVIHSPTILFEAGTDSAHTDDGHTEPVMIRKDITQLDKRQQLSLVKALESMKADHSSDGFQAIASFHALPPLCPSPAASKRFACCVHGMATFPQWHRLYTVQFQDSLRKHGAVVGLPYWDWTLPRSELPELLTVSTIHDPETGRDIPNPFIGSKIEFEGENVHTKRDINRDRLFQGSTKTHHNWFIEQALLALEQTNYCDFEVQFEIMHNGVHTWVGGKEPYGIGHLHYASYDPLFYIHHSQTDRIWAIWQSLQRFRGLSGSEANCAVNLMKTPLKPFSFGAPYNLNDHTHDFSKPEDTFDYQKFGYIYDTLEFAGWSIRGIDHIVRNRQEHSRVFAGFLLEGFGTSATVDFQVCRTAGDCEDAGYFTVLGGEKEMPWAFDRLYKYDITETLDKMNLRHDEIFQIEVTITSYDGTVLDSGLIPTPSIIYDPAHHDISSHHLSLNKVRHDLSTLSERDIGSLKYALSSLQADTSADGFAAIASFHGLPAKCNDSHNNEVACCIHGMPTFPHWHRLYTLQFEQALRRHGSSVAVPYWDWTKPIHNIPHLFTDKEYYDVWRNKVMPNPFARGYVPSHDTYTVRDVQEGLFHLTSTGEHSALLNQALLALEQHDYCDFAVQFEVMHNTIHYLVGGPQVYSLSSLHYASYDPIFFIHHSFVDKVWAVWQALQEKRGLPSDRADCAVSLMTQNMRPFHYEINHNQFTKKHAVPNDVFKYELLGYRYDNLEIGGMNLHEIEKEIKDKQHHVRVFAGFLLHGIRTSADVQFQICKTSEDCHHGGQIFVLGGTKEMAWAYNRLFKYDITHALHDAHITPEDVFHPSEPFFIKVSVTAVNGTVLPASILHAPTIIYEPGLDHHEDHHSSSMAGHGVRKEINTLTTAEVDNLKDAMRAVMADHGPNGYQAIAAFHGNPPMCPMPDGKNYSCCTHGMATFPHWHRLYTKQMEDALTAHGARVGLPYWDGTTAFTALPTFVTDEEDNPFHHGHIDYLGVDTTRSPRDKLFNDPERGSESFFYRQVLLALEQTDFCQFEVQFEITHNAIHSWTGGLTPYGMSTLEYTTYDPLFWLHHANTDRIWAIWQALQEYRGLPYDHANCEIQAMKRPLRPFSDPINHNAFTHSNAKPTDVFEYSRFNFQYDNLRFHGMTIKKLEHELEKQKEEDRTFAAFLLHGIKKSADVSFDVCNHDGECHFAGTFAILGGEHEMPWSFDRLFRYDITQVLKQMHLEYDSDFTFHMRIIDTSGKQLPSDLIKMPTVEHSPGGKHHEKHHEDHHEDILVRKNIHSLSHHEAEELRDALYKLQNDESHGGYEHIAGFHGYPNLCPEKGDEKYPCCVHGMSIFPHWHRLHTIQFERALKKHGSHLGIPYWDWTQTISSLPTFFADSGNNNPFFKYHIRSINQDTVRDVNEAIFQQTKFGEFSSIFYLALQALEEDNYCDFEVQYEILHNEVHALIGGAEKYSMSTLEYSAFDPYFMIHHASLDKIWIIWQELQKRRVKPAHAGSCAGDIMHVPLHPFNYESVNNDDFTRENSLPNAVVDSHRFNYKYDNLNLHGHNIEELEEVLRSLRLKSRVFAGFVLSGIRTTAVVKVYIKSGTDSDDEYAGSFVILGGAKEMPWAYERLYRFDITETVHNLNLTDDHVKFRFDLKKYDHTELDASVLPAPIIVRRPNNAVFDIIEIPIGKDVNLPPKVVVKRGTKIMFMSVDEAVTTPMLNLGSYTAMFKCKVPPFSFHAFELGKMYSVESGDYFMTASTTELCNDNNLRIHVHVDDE

hBTN1A1-His [8] = target: T5, hBTN1A1-His; test: ELISA, titration of purified antibody
hBTN1A1-His [9] = target: T5, hBTN1A1-His; test: ELISA, titration of purified antibody; remark: listed apart in the source

ELISA signal (BTN1A1 Peptide 4 [1]): 0.048
ELISA signal (hBTN1A1 ICD [2]): 0.04
ELISA signal (denatured hBTN1A1 ICD [3]): 0.041
ELISA signal (BTN1A1 Peptide 4 [4]): 0.074
ELISA signal (hBTN1A1 ICD [5]): 0.063
ELISA signal (denatured hBTN1A1 ICD [6]): 0.062
Molecule: Negative (control of the clone screen ELISA)

O.D. 450 nm (ECD1 Peptide): 3.18
O.D. 450 nm (hBTN1A1-His [7]): 2.91
O.D. 450 nm (KLH Only): 0.051
EC50 (read off the curve) (hBTN1A1-His [8]): ~0.02 µg/mL
B1: STC85F1-1 (antibody, V domains shown)
VH: QSLEESGGRLVTPGGSLTLTCTVSGIDLSRYGVNWVRQAPGKGLEWIGYIGTTSNTYYASWAKGRFTISKTSSTTVDLKMTSLTTEDTATYFCARSVVSPSNSSFWGQGTLVTVSS
VL: DPVMTQTPSSTSAAVGGTVTINCQSSQSVYNNKNLSWFQQKPGQPPKLLIYRASTLPSGVPSRFKGSGSGTQFTLTISDLECDDAATYYCAGGYSGDINVFGGGTEVVVK
notes: From immunized New Zealand rabbits; IgG heavy chain and Kappa light chain; Variable domains without signal peptide; also called clone #85F1-1

O.D. 450 nm (ECD1 Peptide): 2.66
O.D. 450 nm (hBTN1A1-His [7]): 2.1
O.D. 450 nm (KLH Only): 0.052
EC50 (read off the curve) (hBTN1A1-His [9]): ~0.02 µg/mL
B2: STC43G3-1 (antibody, V domains shown)
VH: QSLEESGGRLVTPGTPLTLTCTVSGIDLSRYGVNWVRQAPGKGLEWIGYIGTTGNTYYASWVNGRFTISKTSTTVELKMTSLTAADTATYFCARSVVSPSNSSFWGQGTLVTVSS
VL: B1 VL with K33N, T55K, S62P, K65S, D79S, L80V, E81Q, Y89F
notes: From immunized New Zealand rabbits; IgG heavy chain and Kappa light chain; Variable domains without signal peptide; also called clone #43G3-1
